{"source": "the RNAGym collection of RNA variant scans (doi:10.7554/elife.80360)", "parents": {"B1": {"name": "Hairpin Ribozyme (parent)", "chain": "GUCCUCUUUCACGUGCGCGUGAAAGAGAGAAGUGAACCAGAGAAACACACGUUGUGGUAUAUUACCUGGUA"}}}
{"variants_of": "B1", "experiment": "self-cleavage, relative activity (ratio to wild type); higher = more cleavage; co-transcriptional"}
{"variant": "U7A U8C", "self-cleavage": 0.559}
{"variant": "U7A G19A", "self-cleavage": 0.845}
{"variant": "C6G G34A", "self-cleavage": 1.02}
{"variant": "C6G G25U", "self-cleavage": 0.475}
{"variant": "C6U A71G", "self-cleavage": 0.82}
{"variant": "C6U A71U", "self-cleavage": 0.708}
{"variant": "C6U A28G", "self-cleavage": 0.734}
{"variant": "C6U A28C", "self-cleavage": 0.428}
{"variant": "C6G U9C", "self-cleavage": 0.436}
{"variant": "C6U G19C", "self-cleavage": 0.719}
{"variant": "C6U G19A", "self-cleavage": 0.793}
{"variant": "U7A A22C", "self-cleavage": 0.649}
{"variant": "U7A A22G", "self-cleavage": 0.61}
{"variant": "U7A G42C", "self-cleavage": 0.357}
{"variant": "U7A G42U", "self-cleavage": 0.173}
{"variant": "C6U C46A", "self-cleavage": 0.0705}
{"variant": "C6U C46G", "self-cleavage": 0.204}
{"variant": "U7A A71C", "self-cleavage": 1.34}
{"variant": "C6U C66U", "self-cleavage": 0.309}
{"variant": "U7A A24C", "self-cleavage": 1.02}
{"variant": "U7A G34U", "self-cleavage": 1.4}
{"variant": "U7A G34C", "self-cleavage": 1.36}
{"variant": "C6G C65G", "self-cleavage": 0.23}
{"variant": "C6U C37U", "self-cleavage": 0.6}
{"variant": "C6U A45C", "self-cleavage": 0.0819}
{"variant": "C6G G40A", "self-cleavage": 0.207}
{"variant": "C6G G40C", "self-cleavage": 0.0776}
{"variant": "C6G U14G", "self-cleavage": 0.374}
{"variant": "C6G U14A", "self-cleavage": 0.634}
{"variant": "U7A A30G", "self-cleavage": 0.305}
{"variant": "U7A A35U", "self-cleavage": 0.714}
{"variant": "C6U G21A", "self-cleavage": 0.572}
{"variant": "C6G U60G", "self-cleavage": 0.31}
{"variant": "C6G U60A", "self-cleavage": 0.496}
{"variant": "U7A C16A", "self-cleavage": 0.911}
{"variant": "U7A A59U", "self-cleavage": 0.182}
{"variant": "C6U G13U", "self-cleavage": 0.6}
{"variant": "C6U G54C", "self-cleavage": 0.311}
{"variant": "C6G G13U", "self-cleavage": 0.27}
{"variant": "U7A A31G", "self-cleavage": 0.77}
{"variant": "U7A A31C", "self-cleavage": 0.0614}
{"variant": "U7A A31U", "self-cleavage": 0.11}
{"variant": "U7A G56C", "self-cleavage": 0.176}
{"variant": "U7A G56U", "self-cleavage": 0.128}
{"variant": "C6U C16A", "self-cleavage": 0.85}
{"variant": "C6G G57C", "self-cleavage": 0.124}
{"variant": "U7A C50A", "self-cleavage": 0.175}
{"variant": "U7A C50G", "self-cleavage": 0.269}
{"variant": "C6U A39G", "self-cleavage": 0.304}
{"variant": "U7A G21C", "self-cleavage": 0.664}
{"variant": "U7A G21U", "self-cleavage": 0.683}
{"variant": "C6U G32A", "self-cleavage": 0.114}
{"variant": "C6U G32U", "self-cleavage": 0.0839}
{"variant": "C6U G32C", "self-cleavage": 0.0823}
{"variant": "U7A G54A", "self-cleavage": 0.535}
{"variant": "C6U C65G", "self-cleavage": 0.232}
{"variant": "U7A A64U", "self-cleavage": 0.248}
{"variant": "C6G G32A", "self-cleavage": 0.106}
{"variant": "C6G G32U", "self-cleavage": 0.116}
{"variant": "C6G U52C", "self-cleavage": 0.595}
{"variant": "C6U U9A", "self-cleavage": 0.517}
{"variant": "C6U A36G", "self-cleavage": 0.834}
{"variant": "C6U A61G", "self-cleavage": 0.155}
{"variant": "C6U A61U", "self-cleavage": 0.0757}
{"variant": "C6U U33C", "self-cleavage": 0.135}
{"variant": "U7A", "self-cleavage": 0.92}
{"variant": "C6G U33A", "self-cleavage": 0.155}
{"variant": "U7A A44C", "self-cleavage": 0.177}
{"variant": "C6G G17C", "self-cleavage": 0.365}
{"variant": "C6G G17A", "self-cleavage": 0.491}
{"variant": "U7A A28C", "self-cleavage": 0.471}
{"variant": "U7A A28G", "self-cleavage": 1.03}
{"variant": "C6U U55C", "self-cleavage": 0.183}
{"variant": "C6U U55A", "self-cleavage": 0.217}
{"variant": "C6U U55G", "self-cleavage": 0.375}
{"variant": "U7A A23U", "self-cleavage": 0.791}
{"variant": "C6G G42A", "self-cleavage": 0.0986}
{"variant": "C6G G42C", "self-cleavage": 0.157}
{"variant": "C6G U7G", "self-cleavage": 0.131}
{"variant": "C6G U7C", "self-cleavage": 0.299}
{"variant": "C6G G51U", "self-cleavage": 0.44}
{"variant": "C6U G40C", "self-cleavage": 0.14}
{"variant": "C6U", "self-cleavage": 0.826}
{"variant": "C6U U52C", "self-cleavage": 0.773}
{"variant": "C6U U52A", "self-cleavage": 0.965}
{"variant": "C6U G42U", "self-cleavage": 0.323}
{"variant": "C6U A47U", "self-cleavage": 0.0966}
{"variant": "C6U A47G", "self-cleavage": 0.107}
{"variant": "C6U A47C", "self-cleavage": 0.283}
{"variant": "U7A A43C", "self-cleavage": 0.186}
{"variant": "U7A A39U", "self-cleavage": 0.546}
{"variant": "U7A U14A", "self-cleavage": 1.03}
{"variant": "C6G U20A", "self-cleavage": 0.242}
{"variant": "C6U C10U", "self-cleavage": 0.582}
{"variant": "C6U C10A", "self-cleavage": 0.55}
{"variant": "C6U U20G", "self-cleavage": 0.637}
{"variant": "U7A C12U", "self-cleavage": 0.797}
{"variant": "U7A C12A", "self-cleavage": 0.549}
{"variant": "U7A C66A", "self-cleavage": 0.269}
{"variant": "U7A C66U", "self-cleavage": 0.461}
{"variant": "C6U C18A", "self-cleavage": 0.885}
{"variant": "C6U U53A", "self-cleavage": 0.912}
{"variant": "C6U G29U", "self-cleavage": 0.12}
{"variant": "C6U U60C", "self-cleavage": 0.794}
{"variant": "C6G C66A", "self-cleavage": 0.239}
{"variant": "C6G C66U", "self-cleavage": 0.173}
{"variant": "C6U C38G", "self-cleavage": 0.189}
{"variant": "C6U C38U", "self-cleavage": 0.37}
{"variant": "U7A C37A", "self-cleavage": 0.261}
{"variant": "U7A C37U", "self-cleavage": 0.403}
{"variant": "U7A C18A", "self-cleavage": 1.12}
{"variant": "C6G G56C", "self-cleavage": 0.175}
{"variant": "C6G G56A", "self-cleavage": 0.149}
{"variant": "U7A A41C", "self-cleavage": 1.3}
{"variant": "U7A A36U", "self-cleavage": 0.568}
{"variant": "C6U G56C", "self-cleavage": 0.149}
{"variant": "C6G G29C", "self-cleavage": 0.146}
{"variant": "C6G G29A", "self-cleavage": 0.138}
{"variant": "C6U U7G", "self-cleavage": 0.449}
{"variant": "C6U A49G", "self-cleavage": 0.571}
{"variant": "C6G G69C", "self-cleavage": 0.115}
{"variant": "C6G G69U", "self-cleavage": 0.188}
{"variant": "U7A C10G", "self-cleavage": 0.541}
{"variant": "C6U G15A", "self-cleavage": 0.794}
{"variant": "C6U G15C", "self-cleavage": 0.722}
{"variant": "U7A G51C", "self-cleavage": 0.972}
{"variant": "U7A G68C", "self-cleavage": 0.146}
{"variant": "U7A G68A", "self-cleavage": 0.28}
{"variant": "C6U A44U", "self-cleavage": 0.12}
{"variant": "C6U U8A", "self-cleavage": 0.538}
{"variant": "C6U U8G", "self-cleavage": 0.431}
{"variant": "C6U A24C", "self-cleavage": 0.747}
{"variant": "U7A G27U", "self-cleavage": 0.251}
{"variant": "U7A G27C", "self-cleavage": 0.197}
{"variant": "U7A G17U", "self-cleavage": 0.89}
{"variant": "C6U C12G", "self-cleavage": 0.661}
{"variant": "C6U C12A", "self-cleavage": 0.656}
{"variant": "C6U A30U", "self-cleavage": 0.152}
{"variant": "C6U A41U", "self-cleavage": 0.977}
{"variant": "C6G G19C", "self-cleavage": 0.328}
{"variant": "C6G G19A", "self-cleavage": 0.45}
{"variant": "C6U A59C", "self-cleavage": 0.251}
{"variant": "C6U A59U", "self-cleavage": 0.127}
{"variant": "C6U A59G", "self-cleavage": 0.266}
{"variant": "U7A A11C", "self-cleavage": 0.636}
{"variant": "C6U G57C", "self-cleavage": 0.135}
{"variant": "C6U A31G", "self-cleavage": 0.451}
{"variant": "C6G C50G", "self-cleavage": 0.109}
{"variant": "U7A C38A", "self-cleavage": 0.28}
{"variant": "C6G G15U", "self-cleavage": 0.706}
{"variant": "U7A C65A", "self-cleavage": 0.876}
{"variant": "U7A C65U", "self-cleavage": 0.349}
{"variant": "C6U G51C", "self-cleavage": 0.823}
{"variant": "U7A A47C", "self-cleavage": 0.34}
{"variant": "U7A A47G", "self-cleavage": 0.0992}
{"variant": "U7A A47U", "self-cleavage": 0.0924}
{"variant": "C6U U62A", "self-cleavage": 0.266}
{"variant": "C6U A22U", "self-cleavage": 0.789}
{"variant": "C6U A22C", "self-cleavage": 0.493}
{"variant": "C6G U67C", "self-cleavage": 0.151}
{"variant": "C6G U67G", "self-cleavage": 0.146}
{"variant": "U7A G32U", "self-cleavage": 0.149}
{"variant": "U7A G32A", "self-cleavage": 0.145}
{"variant": "C6U G69U", "self-cleavage": 0.256}
{"variant": "C6U G69C", "self-cleavage": 0.178}
{"variant": "U7A G57U", "self-cleavage": 0.253}
{"variant": "C6G G21A", "self-cleavage": 0.179}
